Data from patent US20170210813A1 (Regeneron, published 2017).

T1: Macaca fascicularis PDGFRb.mmh (Macaca fascicularis)
T1 construct: Soluble monomeric construct; also called mfPDGFRb.mmh
T1 chain: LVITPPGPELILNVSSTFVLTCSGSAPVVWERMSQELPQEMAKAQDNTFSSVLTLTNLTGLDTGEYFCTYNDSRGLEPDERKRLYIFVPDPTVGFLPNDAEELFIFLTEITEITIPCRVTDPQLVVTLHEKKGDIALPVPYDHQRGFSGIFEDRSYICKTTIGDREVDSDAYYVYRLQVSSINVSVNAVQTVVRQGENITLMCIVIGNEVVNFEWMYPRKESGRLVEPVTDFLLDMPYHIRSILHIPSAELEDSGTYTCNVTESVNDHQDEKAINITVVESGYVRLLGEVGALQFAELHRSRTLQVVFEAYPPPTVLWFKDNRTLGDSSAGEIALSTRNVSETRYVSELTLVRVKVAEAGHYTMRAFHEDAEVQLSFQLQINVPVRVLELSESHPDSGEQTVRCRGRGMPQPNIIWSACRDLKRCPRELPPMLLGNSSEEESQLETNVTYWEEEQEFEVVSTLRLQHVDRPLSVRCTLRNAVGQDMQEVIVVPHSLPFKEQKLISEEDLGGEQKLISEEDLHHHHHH

T2: PDGFR-beta extracellular domain construct D1-D2 (human)
T2 construct: also called D1-2
T2 chain: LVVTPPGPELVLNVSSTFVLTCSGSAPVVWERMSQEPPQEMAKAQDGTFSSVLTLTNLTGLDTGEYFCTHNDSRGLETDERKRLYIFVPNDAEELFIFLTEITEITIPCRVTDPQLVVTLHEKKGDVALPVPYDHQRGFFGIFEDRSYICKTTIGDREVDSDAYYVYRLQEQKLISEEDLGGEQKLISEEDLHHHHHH

T3: PDGFR-beta extracellular domain construct D1-D3 (human)
T3 construct: also called D1-3
T3 chain: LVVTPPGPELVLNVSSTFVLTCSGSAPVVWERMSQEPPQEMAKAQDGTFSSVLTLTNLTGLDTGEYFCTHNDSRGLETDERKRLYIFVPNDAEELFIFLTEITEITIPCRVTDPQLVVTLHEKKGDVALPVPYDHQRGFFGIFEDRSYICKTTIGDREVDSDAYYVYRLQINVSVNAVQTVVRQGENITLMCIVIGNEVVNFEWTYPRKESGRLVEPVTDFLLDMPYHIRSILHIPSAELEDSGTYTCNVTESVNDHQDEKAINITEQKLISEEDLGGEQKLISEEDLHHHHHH

T4: PDGFR-beta extracellular domain construct D1-D4 (human)
T4 construct: also called D1-4
T4 chain: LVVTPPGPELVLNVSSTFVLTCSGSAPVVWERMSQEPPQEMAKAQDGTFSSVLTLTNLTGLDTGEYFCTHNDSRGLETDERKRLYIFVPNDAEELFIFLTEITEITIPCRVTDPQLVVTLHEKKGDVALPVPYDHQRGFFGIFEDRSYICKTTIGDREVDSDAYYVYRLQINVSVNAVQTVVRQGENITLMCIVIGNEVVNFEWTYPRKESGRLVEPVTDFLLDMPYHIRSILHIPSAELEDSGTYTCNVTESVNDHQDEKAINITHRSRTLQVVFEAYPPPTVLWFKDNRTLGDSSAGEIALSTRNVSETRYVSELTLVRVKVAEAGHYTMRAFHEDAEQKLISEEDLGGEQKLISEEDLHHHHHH


Columns and labels:
hPDGFRb.mmh [1] = target: T5, hPDGFRb.mmh (human, UniProt P09619 33-531); assay: SPR, mAb captured, 25 C
T5 construct: Soluble monomeric construct; also called soluble human PDGFR-beta.mmh
Protocol: (§1) Antibodies, expressed as either mouse Fc (prefix H1M; H2M) or human Fc (prefix H4H), were captured on their respective anti-Fc sensor surfaces (Mab capture format). […] Kinetic association (kₐ) and dissociation (kd) rate constants were determined by processing and fitting the data to a 1:1 binding model using Scrubber 2.0 curve fitting software.

[2] = target: T1, Macaca fascicularis PDGFRb.mmh; assay: SPR, mAb captured, 25 C
Protocol: as §1

human PDGFRb.hFc = target: T6, human PDGFRb.hFc (human); assay: SPR, mAb captured, 25 C
T6 construct: Soluble dimeric construct with human Fc; also called hPDGFRb.hFc
Protocol: as §1

[3] = target: T2, PDGFR-beta extracellular domain …; assay: SPR, mAb captured, construct at 50nM
Protocol: (§2) Four different anti-PDGFR-beta antibodies were tested for binding to the various constructs by surface plasmon resonance (Biacore). Briefly, 150-200 RU's of anti-PDGFR beta antibody was captured via an anti-human Fc CM5 chip. Next, the individual domain constructs, or full-length PDGFR beta, was applied over the antibody-bound surface at a concentration of 50nM. The ability of the various antibodies to bind to the various domain constructs was measured. (−)=No binding observed; (+)=Binding observed; ND=Not determined.

hPDGFRb.mmh [4] = target: T5, hPDGFRb.mmh; assay: Octet BLI cross-competition, 25 C; hPDGFRb.mmh on anti-Penta-His tips pre-saturated with mAb-1 H4H3103S (row 4)
Protocol: (§3) A cross-competition assay was conducted to assess the ability of select antibodies to compete with one another for binding to human PDGFR-beta. […] Each PDGFR-beta.mmh-coated sensor tip was saturated for 5 min with a first anti-PDGFR-beta antibody (Mab #1; 50 μg/mL). Next, each sensor tip was saturated with a solution of a second anti-PDGFR-beta antibody (Mab #2). The real time response of Mab #2 binding to PDGR-beta.mmh pre-complexed with Mab #1 was then monitored. All assays were performed at 25° C. with a flow rate of 1000 rpm on an Octet RED384 biosensor in Octet HBST buffer according to manufacturer's instructions (ForteBio Corp., Menlo Park, Calif.). Results are illustrated in FIG. 2.

hPDGFRb.mmh [5] = target: T5, hPDGFRb.mmh; assay: Octet BLI cross-competition, 25 C; hPDGFRb.mmh on anti-Penta-His tips pre-saturated with mAb-1 H4H3305N (row 8)
Protocol: as §3

hPDGFRb.mmh [6] = target: T5, hPDGFRb.mmh; assay: Octet BLI cross-competition, 25 C; hPDGFRb.mmh on anti-Penta-His tips pre-saturated with mAb-1 H4H3310N (row 9)
Protocol: as §3

[7] = target: T2, PDGFR-beta extracellular domain …; assay: SPR, mAb captured, construct as analyte
Protocol: as §2

[8] = target: T3, PDGFR-beta extracellular domain …; assay: SPR, mAb captured, construct as analyte
Protocol: as §2

[9] = target: T4, PDGFR-beta extracellular domain …; assay: SPR, mAb captured, construct as analyte
Protocol: as §2

Binder | Kd (hPDGFRb.mmh [1]) [nM] | koff (hPDGFRb.mmh [1]) [s⁻¹] | kon (hPDGFRb.mmh [1]) [M⁻¹ s⁻¹] | t1/2 (hPDGFRb.mmh [1]) [h] | Kd [2] [nM] | koff [2] [s⁻¹] | kon [2] [M⁻¹ s⁻¹] | t1/2 [2] [h] | Kd (human PDGFRb.hFc) [nM] | koff (human PDGFRb.hFc) [s⁻¹] | kon (human PDGFRb.hFc) [M⁻¹ s⁻¹] | t1/2 (human PDGFRb.hFc) [h] | binding result [3] | Response of mAb-2 Binding to hPDGFRβ.mmh Pre-Complexed with mAb-1 (nm) (hPDGFRb.mmh [4]) | Response of mAb-2 Binding to hPDGFRβ.mmh Pre-Complexed with mAb-1 (nm) (hPDGFRb.mmh [5]) | Response of mAb-2 Binding to hPDGFRβ.mmh Pre-Complexed with mAb-1 (nm) (hPDGFRb.mmh [6]) | binding result [7] | binding result [8] | binding result [9]
H4H3094P (antibody, human IgG4, V domains shown, also called H4H3394P) VH: EVQLVESGGGLVQPGGSLRLSCAASGFTFSSYWMSWVRQAPGKGLEWVANMNQDGSETHYVDSVKGRLSISRDNAKKSLFLHMNSLRAEDTAVYFCARDLVPPRQDDYYYYFGMDVWGHGTTVTVSS VL: DIQMTQSPSTLSASVGDRVTITCRASQSISDWLAWYQQKPGKAPKLLIFKASTLESGVPSRFSGSGSGTEFTLTISSLQPDDFATYYCQQYNSYSRTFGQGTKVEIK | 1.56 | 0.000257 | 165000 | 0.75 | 1.63 | 0.000289 | 177000 | 0.667 | 0.256 | 6.2e-05 | 242000 | 3.1 | binds | 0.02 | 0.25 | 0.25 | – | – | –
H4H3099S (antibody, human IgG4, V domains shown, human IgG4 Fc (H4H prefix)) VH: QITLKESGPTLVKPTQTLTLTCTFSGFSLTTTGVGVGWIRQPPGKALEWLALIYWNDLKRYSPSLKNRLTITKDTSRHQVVLTMTNMDPMDTATYYCAHRPLYYGSGSGWFDPWGPGTTVTVSS VL: not shown | 1.16 | 0.000169 | 145000 | 1.13 | 0.987 | 0.000164 | 166000 | 1.18 | 0.23 | 5.48e-05 | 238000 | 3.52 | – | 0.34 | – | – | no binding (tested: 50nM) | no binding (tested: 50nM) | no binding (tested: 50nM)

The remaining lines, values ahead:

Kd (hPDGFRb.mmh [1]) [nM] | koff (hPDGFRb.mmh [1]) [s⁻¹] | kon (hPDGFRb.mmh [1]) [M⁻¹ s⁻¹] | t1/2 (hPDGFRb.mmh [1]) [h] | Kd [2] [nM] | koff [2] [s⁻¹] | kon [2] [M⁻¹ s⁻¹] | t1/2 [2] [h] | Kd (human PDGFRb.hFc) [nM] | koff (human PDGFRb.hFc) [s⁻¹] | kon (human PDGFRb.hFc) [M⁻¹ s⁻¹] | t1/2 (human PDGFRb.hFc) [h] | binding result [3] | Response of mAb-2 Binding to hPDGFRβ.mmh Pre-Complexed with mAb-1 (nm) (hPDGFRb.mmh [4]) | Response of mAb-2 Binding to hPDGFRβ.mmh Pre-Complexed with mAb-1 (nm) (hPDGFRb.mmh [5]) | Response of mAb-2 Binding to hPDGFRβ.mmh Pre-Complexed with mAb-1 (nm) (hPDGFRb.mmh [6]) | binding result [7] | binding result [8] | binding result [9] | Binder
1.81 | 0.000109 | 59900 | 1.77 | 1.82 | 0.000111 | 61200 | 1.73 | 0.248 | 3.42e-05 | 138000 | 5.63 | – | 0.25 | – | 0.01 | no binding (tested: 50nM) | no binding (tested: 50nM) | no binding (tested: 50nM) | H4H3305N (antibody, human IgG4, V domains shown, human IgG4 Fc (H4H prefix)) VH: QLQLQESGPGLVKPSETLSLTCIVSGGSISSSSYYWGWIRQPPGKGLEWIGSLYYSGITFYNPSLKSRVTISVDTSKNQFSLTLTSVTAADTAVFYCARHRVMASSPFDHWGQGTLVTVSS VL: not shown
1.26 | 0.000358 | 283000 | 0.533 | 1.66 | 0.000472 | 284000 | 0.4 | 0.148 | 8.93e-05 | 600000 | 2.15 | binds | 0.02 | 0.27 | 0.26 | – | – | – | H4H3374N (antibody, human IgG4, V domains shown, human IgG4 Fc (H4H prefix)) VH: QLQLQESGPGLVKPSETLSLTCTVSGGSITSSSYYWGWIRQPPGKGLEWIGSIYYRGSTNYNPSLKSRVTISVDSSKNQFYLKVSSVTAVDTAVYYCARQNGAARPSWFDPWGQGTLVTVSS VL: EIVLTQSPDTISLSPGERATLSCRASQSISSIYLAWYQQKPGQAPRLLIYGASSRVTGIPDRFSVSGSGTDFTLTISRLEPEDFAVYYCQHYGISPFTFGPGTKVDIR
